# Measured values published in PMC9851988.
# Molecular target: His7-SUMO-Arc-C11^CFAS (not stated | E. coli)
# Assay: BLI
substance,measurement,value
anhydrotrypsin (enzyme),equilibrium response signal relative to His7-SUMO-Arc-C11^CFAS/R11A,6 fold
